Reference: article PMC5750225, “Inhibition of Poly(A)-binding protein with a synthetic RNA mimic reduces pain sensitization in mice”

B1: Poly(A) SPOT-ON (XNA)
strand: AAAAAAAAAAAA
modifications: 2'-O-methyl throughout; phosphorothioate at the 5' and 3' terminal linkages (A*AAAAAAAAAA*A)

Biological target: PABP (PABPC1) (Homo sapiens, UniProt P11940 1-383)
Assay: fluorescence polarization/anisotropy; text gives nM; Fig. 2d legend prints μM; FP: 50 mM HEPES, 5 mM EDTA, 250 mM KCl, 10 mM DTT, 0.5 mg/mL BSA, 0.05% Tween-20, 0.1 mg/mL yeast RNA, 0.5 nM Cy3-RNA (pH and temperature not stated). EMSA: 10
Settings: protein: recombinant

Chain of PABP (PABPC1) (P11940 1-383): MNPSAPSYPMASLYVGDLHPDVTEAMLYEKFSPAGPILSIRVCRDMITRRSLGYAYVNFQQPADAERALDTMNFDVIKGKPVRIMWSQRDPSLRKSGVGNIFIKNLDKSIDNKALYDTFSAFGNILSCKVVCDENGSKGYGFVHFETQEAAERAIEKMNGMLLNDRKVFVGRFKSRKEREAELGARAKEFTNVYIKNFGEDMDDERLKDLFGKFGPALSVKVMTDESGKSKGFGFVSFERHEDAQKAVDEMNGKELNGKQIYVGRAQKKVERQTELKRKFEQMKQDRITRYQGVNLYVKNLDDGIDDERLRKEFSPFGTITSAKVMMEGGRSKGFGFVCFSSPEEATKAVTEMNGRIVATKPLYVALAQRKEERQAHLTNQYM

Binder | Kd
AAAAAAAAAAAA (ssRNA) [unmodified 12-base Poly(A) RNA] | 261 ± 54 nM
B1 | 301 ± 41 nM
